In paper PMC11001197, “The PII protein interacts with the Amt ammonium transport and modulates nitrate/nitrite assimilation in mycobacteria” (Frontiers in Microbiology, 2024):

Molecular target: T1, M. tuberculosis AccA3, His tag fusion (α-subunit of the acyl-CoA carboxylases) (M. tuberculosis, UniProt P96890 1-600)
T1 construct: also called His-AccA3; AccA3-His6
Assay: pull-down
Details: both partners purified

T1 sequence (P96890 whole entry, the tested form may be a part): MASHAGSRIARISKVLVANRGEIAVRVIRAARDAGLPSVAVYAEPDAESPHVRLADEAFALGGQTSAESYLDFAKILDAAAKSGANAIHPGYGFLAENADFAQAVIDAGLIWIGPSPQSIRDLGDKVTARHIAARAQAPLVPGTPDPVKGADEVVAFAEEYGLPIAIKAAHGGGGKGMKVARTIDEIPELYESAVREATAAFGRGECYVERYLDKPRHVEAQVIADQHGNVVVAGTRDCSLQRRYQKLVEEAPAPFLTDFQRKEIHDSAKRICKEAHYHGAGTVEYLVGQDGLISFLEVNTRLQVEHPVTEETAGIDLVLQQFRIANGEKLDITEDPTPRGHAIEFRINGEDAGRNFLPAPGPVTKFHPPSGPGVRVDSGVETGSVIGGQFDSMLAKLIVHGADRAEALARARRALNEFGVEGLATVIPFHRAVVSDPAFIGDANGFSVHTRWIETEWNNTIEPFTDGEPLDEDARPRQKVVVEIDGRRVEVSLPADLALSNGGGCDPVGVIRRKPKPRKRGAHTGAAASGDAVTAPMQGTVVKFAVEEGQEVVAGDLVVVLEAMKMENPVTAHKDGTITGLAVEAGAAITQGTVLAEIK

B1: Azospirillum brasilense GlnB (PII protein), without tags (natural protein, A. brasilense, UniProt P21193 1-112, looked up)
chain: MKKIEAIIKPFKLDEVKEALHEVGIKGITVTEAKGFGRQKGHTELYRGAEYVVDFLPKVKIEVVMEDSLVERAIEAIQQAAHTGRIGDGKIFVTPVEEVVRIRTGEKGGDAI
notes: also called Ab-GlnB; PII (Ab); source: E. coli (plasmid pLH25PET, pET28a), obtained without tags according to Gerhardt et al. (2015, 2017)
- binding result: binds
